# Experimental data taken from US20250034212A1, “PEPTIDE” (PEPTIDREAM INC., priority 2021, published 2025).
# Starred links: 1 amine or outer side, 2 acyl side, 3 side chain; linkers in the order of their positions; H or OH if unused. Positions of bridges follow the written chain, without caps; N, C: chain ends. Non-standard residues stand in square brackets, D forms with d. No end group written: not given here. *: point of attachment. HA‑tag = HA-tag attached to the G end of the C-terminal linker, CC(C)[C@H](NC(=O)[C@H](CC(=O)O)NC(=O)[C@H](Cc1ccc(O)cc1)NC(=O)[C@@H]1CCCN1C(=O)[C@H](Cc1ccc(O)cc1)N*)C(=O)N1CCC[C@H]1C(=O)N[C@@H](CC(=O)O)C(=O)N[C@@H](Cc1ccc(O)cc1)C(=O)N[C@@H](C)C(=O)O; KCOpipzaa = N6-(4-(carboxymethyl)piperazine-1-carbonyl)-L-lysine, O=C(NCCCC[C@H](N[*:1])C(=O)[*:2])N1CCN(CC(=O)[*:3])CC1; Phe(3-guanidino) = 3-[(aminoiminomethyl)amino]-L-phenylalanine, N=C(N)Nc1cccc(C[C@H](N[*:1])C(=O)[*:2])c1; Phe(4-guanidino) = N=C(N)Nc1ccc(C[C@H](N)C(=O)O)cc1; Trp(6-aza) = N[C@@H](Cc1c[nH]c2cnccc12)C(=O)O; Trp(7-aza) = N[C@@H](Cc1c[nH]c2ncccc12)C(=O)O; 1Nal = N[C@@H](Cc1cccc2ccccc12)C(=O)O; Gly(NCH2CH2Ph) = O=C(O)CNCCc1ccccc1; 3Pal = N[C@@H](Cc1cccnc1)C(=O)O; 4Pal = N[C@@H](Cc1ccncc1)C(=O)O
# Molecular target: T1, recombinant human TGF-β1 (R&D systems) (human, UniProt P01137 279-390)
# T1 sequence (P01137 279-390 limits assumed): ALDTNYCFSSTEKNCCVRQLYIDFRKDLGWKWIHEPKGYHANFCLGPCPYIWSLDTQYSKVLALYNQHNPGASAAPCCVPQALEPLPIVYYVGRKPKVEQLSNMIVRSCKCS
# Assay: cell-based or functional assay
# Details: not given
"SBE reporter % inhibition, peptide 0.075 nM","SBE reporter % inhibition, peptide 0.75 nM","SBE reporter % inhibition, peptide 7.5 nM","SBE reporter % inhibition, peptide 75.0 nM",Molecule
0.1%,37.5%,83.5%,96.7%,"{CH2CO}-F[1Nal]VKNV[4Pal]DD[Gly(NCH2CH2Ph)]V[1Nal]YHVCG (thioether N-16; not fully specified (C-terminus), cyclic peptide; C-terminal G is a linker) [TGFb1_007]"
0%,0.9%,70.1%,94.9%,"{CH2CO}-F[Trp(6-aza)]VVNVYDD[Gly(NCH2CH2Ph)]V[1Nal]YHVCG (thioether N-16, cyclic peptide; C-terminal G is a linker) [TGFb1_004]"
0.4%,47%,90.8%,98.9%,"{CH2CO}-F[Trp(7-aza)]VVNVYDD[Gly(NCH2CH2Ph)]V[1Nal]YHVCG (thioether N-16; not fully specified (C-terminus), cyclic peptide; C-terminal G is a linker) [TGFb1_005]"
3.8%,56.8%,94.6%,98.4%,"{CH2CO}-F[Trp(7-aza)]VVNV[4Pal]DD[Gly(NCH2CH2Ph)]V[1Nal]YHVCG (thioether N-16; not fully specified (C-terminus), cyclic peptide; C-terminal G is a linker) [TGFb1_008]"
2%,63.8%,97.9%,99.9%,"{CH2CO}-F[1Nal]V[KCOpipzaa]NV[4Pal]DD[Gly(NCH2CH2Ph)]V[1Nal]YHVCG (thioether N-16; not fully specified (C-terminus), cyclic peptide; C-terminal G is a linker) [TGFb1_010]"
19.7%,69.7%,98.1%,101%,"{CH2CO}-F[1Nal]VVNVYDD[Gly(NCH2CH2Ph)]V[1Nal]YHVCG (thioether N-16, cyclic peptide; C-terminal G is a linker) [TGFb1_001]"

# Molecular target: T2, recombinant human TGF-β1 (Homo sapiens, UniProt P01137)
# T2 construct: purchased R&D systems
# T2 sequence (P01137 279-390 limits assumed): as above
# Assay: ELISA of HA-tagged peptides with TGF-β1 beads
# Assay type: binding
# Details: ELISA; relative to TGFb1_061 (SEQ ID NO: 62) set to 100%; HA-tag attached
# From the text: In this Example, ELISA was used to evaluate the binding between TGF-β1 and each of various peptides consisting of the amino acid sequences set forth in SEQ ID NOs: 34-69 synthesized in Examples 6 and 7. An HA-tag was attached to the G end of the C-terminal linker of the peptide consisting of the amino acid sequence set forth in SEQ ID NOs: 34-69. As used herein, the “HA-tag” means the amino acid sequence of PEG10[…] (SEQ ID NO: 70).
# The binding activity of each peptide to TGF-β1 was examined by ELISA using the peptide consisting of the amino acid sequence set forth in SEQ ID NOs: 34-69 having an HA-tag attached and TGF-β1 beads.
# Recombinant human TGF-β1 (R&D Systems) was immobilized on Dynabead M-270 Carboxylic Acid (Thermo fisher scientific) to prepare TGF-β1 beads. The immobilization reaction was performed using the Amine Coupling kit (DOJINDO LABORATORIES).
# TGF-β1 beads and each peptide having the HA-tag sequence attached at the C-terminus were reacted in PBS (PBS-T) containing 0.1% Tween 20 (NACALAI TESQUE, INC.) for 1 hour and then washed by PBS-T. To detect the peptide bound to the TGF-β1 beads, an anti-HA-tag mAb-HRP-DirecT (MBL) and the TGF-β1 beads were reacted in PBS-T containing 1% BSA for 30 min. After washing with PBST, a SureBlue TMB Microwell Peroxidase Substrate (Kirkegaard & Perry Laboratories) was added for coloration for 10 min. TMB stop solution (Kirkegaard & Perry Laboratories) was then added to stop the coloration reaction. An EnSpire (Perkin Elmer) was used to measure absorbance.
# Note that the binding activity was expressed as a relative value when the ability of binding the peptide TGFb1_061 (SEQ ID NO: 62) to TGF-β1 was set to 100%.
row,"activity of binding to TGF-β, relative value",Molecule
1,100%,TGFb1_061: cyclic peptide of Table 4 with G linker and HA-tag; ELISA reference set to 100% ({CH2CO}-F[1Nal]VVNVYDD[Gly(NCH2CH2Ph)]V[1Nal]YHVCG-{HA‑tag}; thioether N-16)

# Same assay, conditions: relative value with binding of peptide TGFb1_061 (SEQ ID NO: 62) to TGF-β1 set to 100%; HA-tagged peptides, TGF-β1 beads ELISA
row,Activity of binding to TGF-β,Molecule
1,90%,57 ({CH2CO}-F[1Nal]VVNVQDD[Gly(NCH2CH2Ph)]V[1Nal]YHVCG; thioether N-16; also: HA-tag) [compound 57]
2,140%,69 ({CH2CO}-F[1Nal]VVNV[3Pal]DD[Gly(NCH2CH2Ph)]V[1Nal]YHVCG; thioether N-16; also: HA-tag) [compound 69]
3,104%,65 ({CH2CO}-F[1Nal]VVNV[Phe(3-guanidino)]DD[Gly(NCH2CH2Ph)]V[1Nal]YHVCG; thioether N-16; also: HA-tag) [compound 65]
4,85%,52 ({CH2CO}-F[Trp(6-aza)]VVNVYDD[Gly(NCH2CH2Ph)]V[1Nal]YHVCG; thioether N-16; also: HA-tag) [compound 52]
5,102%,63 ({CH2CO}-F[1Nal]VVNVKDD[Gly(NCH2CH2Ph)]V[1Nal]YHVCG; thioether N-16; also: HA-tag) [compound 63]
6,89%,55 ({CH2CO}-F[1Nal]VVNVYDD[Gly(NCH2CH2Ph)]V[1Nal]YHECG; thioether N-16; also: HA-tag) [compound 55]
7,80%,48 ({CH2CO}-F[1Nal]VVNVEDD[Gly(NCH2CH2Ph)]V[1Nal]YHVCG; thioether N-16; also: HA-tag) [compound 48]
8,80%,49 ({CH2CO}-F[1Nal]VVNVYDD[Gly(NCH2CH2Ph)]V[1Nal][4Pal]HVCG; thioether N-16; also: HA-tag) [compound 49]
9,95%,59 ({CH2CO}-F[1Nal]VVNVYDD[Gly(NCH2CH2Ph)]V[1Nal][3Pal]HVCG; thioether N-16; also: HA-tag) [compound 59]
10,119%,68 ({CH2CO}-F[1Nal]VVNV[4Pal]DD[Gly(NCH2CH2Ph)]V[1Nal]YHVCG; thioether N-16; also: HA-tag) [compound 68]
11,116%,67 ({CH2CO}-F[1Nal]VVNVYDE[Gly(NCH2CH2Ph)]V[1Nal]YHVCG; thioether N-16; also: HA-tag) [compound 67]
12,90%,56 ({CH2CO}-FWVVNVYDD[Gly(NCH2CH2Ph)]V[1Nal]YHVCG; thioether N-16; also: HA-tag) [compound 56]
13,81%,50 ({CH2CO}-F[1Nal]VVNVYDD[Gly(NCH2CH2Ph)]V[1Nal]YHQCG; thioether N-16; also: HA-tag) [compound 50]
14,95%,60 ({CH2CO}-F[1Nal]VVNVYDQ[Gly(NCH2CH2Ph)]V[1Nal]YHVCG; thioether N-16; also: HA-tag) [compound 60]
15,84%,51 ({CH2CO}-F[1Nal]VKNVYDD[Gly(NCH2CH2Ph)]V[1Nal]YHVCG; thioether N-16; also: HA-tag) [compound 51]
16,98%,61 ({CH2CO}-F[1Nal]VVNVYKD[Gly(NCH2CH2Ph)]V[1Nal]YHVCG; thioether N-16; also: HA-tag) [compound 61]
17,93%,58 ({CH2CO}-F[1Nal]VVNVYED[Gly(NCH2CH2Ph)]V[1Nal]YHVCG; thioether N-16; also: HA-tag) [compound 58]
18,106%,66 ({CH2CO}-F[Trp(7-aza)]VVNVYDD[Gly(NCH2CH2Ph)]V[1Nal]YHVCG; thioether N-16; also: HA-tag) [compound 66]
19,87%,54 ({CH2CO}-F[1Nal]VVNV[Phe(4-guanidino)]DD[Gly(NCH2CH2Ph)]V[1Nal]YHVCG; thioether N-16; also: HA-tag) [compound 54]
20,102%,64 ({CH2CO}-F[1Nal]VVNVYDK[Gly(NCH2CH2Ph)]V[1Nal]YHVCG; thioether N-16; also: HA-tag) [compound 64]
21,86%,53 ({CH2CO}-F[1Nal]VVNVYDDKV[1Nal]YHVCG; thioether N-16; also: HA-tag) [compound 53]
22,100%,62 ({CH2CO}-F[1Nal]VVNVYDD[Gly(NCH2CH2Ph)]V[1Nal]YHVCG; thioether N-16; also: HA-tag) [compound 62]

# Molecular target: T1, recombinant human TGF-β1 (R&D systems)
# Assay: SPR, TGF-β1 immobilised, single cycle kinetics
# Details: not given
# Method: Subsequently, 50 μL of 60 mM EDC solution (Global Life Science Technologies Japan Co., Ltd.) and 50 μL of 650 mM NHS solution (Global Life Science Technologies Japan Co., Ltd.) were mixed. Next, the reaction was carried out at a flow rate of 10 μL/min for 420 seconds. Then, 150 μL of 0.2 μM TGF-β solution diluted in 10 mM acetic acid solution (pH 5.0) was prepared and reacted at a flow rate of 10 μL/min for 420 seconds to immobilize TGF-β on the CM3 sensor chip. TGF-β was human-derived TGF-β1 or β2 (recombinant human TGF-β1, 2) and was obtained from R&D systems. After immobilization, capping was performed by reacting with 1.0 M ethanolamine aqueous solution (Global Life Science Technologies Japan Co., Ltd.) at a flow rate of […] for 420 seconds.
# A liquid prepared by dissolving each peptide at 10 mM in DMSO solution was diluted with running buffer to prepare a peptide-dissolved solution at a final concentration of 10 μM. Subsequently, 50 nM, 25 nM, 12.5 nM, 5 nM, and 2.5 nM peptide solutions were prepared. Using the above samples, the kinetics of each peptide against TGF-β was obtained by SPR measurement.
# The kinetics evaluation model was Single Cycle Kinetics, and curve fitting was performed using Biacore T200 Evaluation Software Version 3.0 (Global Life Science Technologies Japan Co., Ltd.). The binding of various peptides to TGF-β was evaluated by performing least-squares curve fitting on the obtained sensorgram to calculate the KD value.
row,Kd,Molecule
1,2.7 nM,"{CH2CO}-F[1Nal]VKNV[4Pal]DD[Gly(NCH2CH2Ph)]V[1Nal]YHVCG (thioether N-16; not fully specified (C-terminus), cyclic peptide; C-terminal G is a linker) [TGFb1_007]"
2,1.49 nM,"{CH2CO}-F[Trp(6-aza)]VVNVYDD[Gly(NCH2CH2Ph)]V[1Nal]YHVCG (thioether N-16, cyclic peptide; C-terminal G is a linker) [TGFb1_004]"
3,1.15 nM,"{CH2CO}-F[Trp(7-aza)]VVNVYDD[Gly(NCH2CH2Ph)]V[1Nal]YHVCG (thioether N-16; not fully specified (C-terminus), cyclic peptide; C-terminal G is a linker) [TGFb1_005]"
4,4.64 nM,"{CH2CO}-F[Trp(7-aza)]VVNV[4Pal]DD[Gly(NCH2CH2Ph)]V[1Nal]YHVCG (thioether N-16; not fully specified (C-terminus), cyclic peptide; C-terminal G is a linker) [TGFb1_008]"
5,0.9 nM,"{CH2CO}-F[1Nal]V[KCOpipzaa]NV[4Pal]DD[Gly(NCH2CH2Ph)]V[1Nal]YHVCG (thioether N-16; not fully specified (C-terminus), cyclic peptide; C-terminal G is a linker) [TGFb1_010]"
6,0.55 nM,"{CH2CO}-F[1Nal]VVNVYDD[Gly(NCH2CH2Ph)]V[1Nal]YHVCG (thioether N-16, cyclic peptide; C-terminal G is a linker) [TGFb1_001]"
7,0.46 nM,"{CH2CO}-F[1Nal]VVNVYDD[Gly(NCH2CH2Ph)]V[1Nal]YHVC (thioether N-16, cyclic peptide) [TGFb1_002]"
